These results are taken from US20240190966A1 (published 2024).

This assay has as its target T1, human LY6G6D-Fc (human, UniProt O95868 20-104).
T1 construct: also called huLY6G6D; hu Ly6G6D; not shown: linker and Fc
T1 sequence: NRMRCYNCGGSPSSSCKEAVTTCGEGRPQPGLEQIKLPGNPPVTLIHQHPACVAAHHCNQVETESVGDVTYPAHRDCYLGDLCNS
Nature of the assay: BIAcore SPR; chimeric Fab; Ly6G6D-Fc captured on Protein A chip, 37 C (FIG. 34C). How it is done:
FIG. 34C is a set of graphs showing binding of Fab variants of rabbit 20A12, rabbit 20A12 comprising […] and C50A (IA) mutations, and the polished humanized 20A12 having a QNT amino acid substitution mutations at the glycosylation site of FIG. 34B to LY6G6D, as measured using a BIAcore assay. Ly6G6D-Fc was captured on a Protein A chip, and the Fab was flowed through at 37° C..

B1: rb20A12.IA (C35I-C50A) chimeric Fab (Fab, V domains shown)
VH: QQQLEESGGDLVKPGASLTLTCTASGFDFVNNAMIWVRQAPGKGLEWIAALSFADNTAYYATWASGRFTISKISSTTVTLRMTSLTGADTATYFCMRGDLWGPGTLVTVSS
VL: DIVMTQTPSSVSAAVGGTVTINCQASESITRYLNWYQQKPGQPPKLLIYDASKLPSGVPSRFKGSGSGTQFTLTTSDLECADAATYYCQSTSFRGRSYNNTFGGGTEVVVK
modifications: CDR-L3 NNT site is N-glycosylated.
notes: also called rabbit 20A12 comprising C35I and C50A (IA) mutations
In the case of B1, the dissociation constant (Kd) amounted to 0.86 nM.

The Kd is a measure of binding affinity in units of concentration.
